Here are results for two molecules from article PMC4879557, “HPTLC-aptastaining – Innovative protein detection system for high-performance thin-layer chromatography”.

The target of data set [1] is T1, lysozyme (hen (egg white), UniProt P00698 19-147). Kind of data set: HPTLC-aptastaining; no obvious differences to LysApt5; White wine mimicking buffer: 1.5 mM KCl, 14.5 mM K acetate, 3.5 mM Mg acetate, 1.5 mM Ca acetate, 1 mM NaH2PO4, 4 mM KH2PO4, 11.5% (v/v) ethanol, pH 3.1; room temperature; plates blocked with 0.6% Tween 20; aptamer 5 nM (silica gel, cellulose) or 0.5 nM (RP). The note with it: protein: native; label: 5' ATTO 550.
T1 sequence (P00698 19-147): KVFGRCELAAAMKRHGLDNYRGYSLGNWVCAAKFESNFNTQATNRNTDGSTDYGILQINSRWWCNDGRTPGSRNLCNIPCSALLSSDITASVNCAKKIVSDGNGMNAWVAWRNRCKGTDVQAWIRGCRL

In data set [2] the target is T1, lysozyme. Description: HPTLC-aptastaining; RP-18W and silica gel plates; White wine mimicking buffer: 1.5 mM KCl, 14.5 mM K acetate, 3.5 mM Mg acetate, 1.5 mM Ca acetate, 1 mM NaH2PO4, 4 mM KH2PO4, 11.5% (v/v) ethanol, pH 3.1; room temperature; plates blocked with 0.6% Tween 20; aptamer 5 nM (silica gel, cellulose) or 0.5 nM (RP). The note with it: protein: native; label: 5' ATTO 550.

The next data set deals with T2, beta-lactoglobulin (UniProt P02754 17-178).
T2 sequence: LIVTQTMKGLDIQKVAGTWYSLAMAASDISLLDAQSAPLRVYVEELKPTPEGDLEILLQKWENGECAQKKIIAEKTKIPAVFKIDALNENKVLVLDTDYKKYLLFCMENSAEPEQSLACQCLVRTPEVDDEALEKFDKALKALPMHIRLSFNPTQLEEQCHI
Described as above. The note with it: protein: native; chain copies: 2; label: 5' ATTO 550.

B1: 5'-ATTO 550-LysApt4 (ssDNA)
DNA: CATCCGTCACACCTGCTCTTGTTATTTTTTGTTGATGTAGGTTTGATGATGTATTTCCGGTGTTCGGTCCCGTATC
In the case of B1, the binding result with lysozyme [1] is reported as “binds”.

B2: 5'-ATTO 550-LysApt5 (ssDNA)
DNA: CATCCGTCACACCTGCTCCCTGCTAGAATTTTTCATGATCTTGCTGTATTTCTATTATGGTGTTCGGTCCCGTATC
For B2, the binding result in the data set with lysozyme [2] is “binds”; with beta-lactoglobulin it was “no binding”.
